In US20240101654A1 (NEURIMMUNE, published 2024):
Values belong to the binder of their own block, whether it stands above or below them.

Biological target: AD-associated Tau in brain extracts of patients with AD (human, UniProt P10636-8 2-441, limits assumed, pathologically modified (sites not given))
Experiment: cell-based or functional assay

Chain of AD-associated Tau in brain extracts of patients with AD (P10636 other isoform, or with tags, fused parts or gaps limits assumed): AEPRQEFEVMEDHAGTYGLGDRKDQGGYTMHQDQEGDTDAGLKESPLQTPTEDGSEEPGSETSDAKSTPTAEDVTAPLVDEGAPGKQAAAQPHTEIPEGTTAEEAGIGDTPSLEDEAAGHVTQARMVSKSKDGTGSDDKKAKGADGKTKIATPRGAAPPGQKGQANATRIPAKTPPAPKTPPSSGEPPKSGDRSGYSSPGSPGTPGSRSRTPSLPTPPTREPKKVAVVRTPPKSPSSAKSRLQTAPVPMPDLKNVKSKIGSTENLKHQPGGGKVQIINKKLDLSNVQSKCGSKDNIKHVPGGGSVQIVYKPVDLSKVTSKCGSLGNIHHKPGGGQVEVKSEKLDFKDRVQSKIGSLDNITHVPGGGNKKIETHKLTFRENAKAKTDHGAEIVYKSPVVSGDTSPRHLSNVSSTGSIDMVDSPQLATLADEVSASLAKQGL

IC50 of Tau aggregation (FRET) in HEK293T Tau biosensor cells seeded with immunodepleted AD brain homogenate: 7.1 µg/mL
B1: NI-502.8H1 (antibody, V domains shown)
VH: EVQLVESGGGLVQPGGSLRLSCAASGFTFSIYTMSWVRQAPGKGLEWVSAILSDGSTYYADSVEGRFTISRDNSKTTLYLQMNSLTAEDTAVYYCTKRVEGSFRGWGQGTLVTVSS
VL: EIVMTQSPGTLSLSPGESATLSCRASQSVSTTYLAWYQQKPGQAPRLLIYGASSRATGIPDRFSGSGSGTDFTLTISRLEPEDFAVYYCQQYGGSRLITFGQGTRLEIK

IC50 of Tau aggregation (FRET) in HEK293T Tau biosensor cells seeded with immunodepleted AD brain homogenate: 6.5 µg/mL
B2: NI-502.4P3 (antibody, V domains shown)
VH: EVQLVQSGAEVKKPGESLKISCKVSGYDFSKYWIGWVRQMPGKGLEWMGLIYPGDSDTRYSPSLEGQVSISADKSISAAYLQFSSLKASDSAMYYCVRKGYSAYLGGWFDPWGQGTLVTVSS
VL: DIQLTQSPDSLAASLGERVTINCRSSQNIFYNSNNKNFLAWYQQKAGQSPKLLIYWASTRESGVPDRFSGSGSGTDFTLTISGLQAGDVAVYFCQQYFTDAPTFGGGTKVEIK
